Assay [1] concerns the target SARS-CoV-2 spike, South African Δ3 B.1.351 variant (pseudovirus RVP-724) (SARS-CoV-2) (UniProt P0DTC2). The assay can be described thus: cell-based or functional assay.
Assay [2] addresses SARS-CoV-2 spike, N439K variant (pseudovirus RVP-703) (SARS-CoV-2) (UniProt P0DTC2). In words: cell-based or functional assay.

Where “and” joins values, the source holds several entries; their conditions need not be identical. Identical values can stand only once.

For the substance “Imdevimab (biosimilar version) (antibody)”, the EC50 (pM) Neutralization, South Africa B.1.351 in assay [1] was 2.48 pM and 2.37 pM. Moreover, in assay [2], the EC50 (pM) Neutralization, N439K was 2260 pM and 2220 pM; the potency in pseudovirus neutralization against REGN10933 was determined as 1000 fold.
